Measured values published in IntAct's records for PubMed 31515488.

B1: Homeobox protein VENTX (Homo sapiens), O95231 (parent)
chain: MRLSSSPPRGPQQLSSFGSVDWLSQSSCSGPTHTPRPADFSLGSLPGPGQTSGAREPPQAVSIKEAAGSSNLPAPERTMAGLSKEPNTLRAPRVRTAFTMEQVRTLEGVFQHHQYLSPLERKRLAREMQLSEVQIKTWFQNRRMKHKRQMQDPQLHSPFSGSLHAPPAFYSTSSGLANGLQLLCPWAPLSGPQALMLPPGSFWGLCQVAQEALASAGASCCGQPLASHPPTPGRPSLGPALSTGPRGLCAMPQTGDAF
partner: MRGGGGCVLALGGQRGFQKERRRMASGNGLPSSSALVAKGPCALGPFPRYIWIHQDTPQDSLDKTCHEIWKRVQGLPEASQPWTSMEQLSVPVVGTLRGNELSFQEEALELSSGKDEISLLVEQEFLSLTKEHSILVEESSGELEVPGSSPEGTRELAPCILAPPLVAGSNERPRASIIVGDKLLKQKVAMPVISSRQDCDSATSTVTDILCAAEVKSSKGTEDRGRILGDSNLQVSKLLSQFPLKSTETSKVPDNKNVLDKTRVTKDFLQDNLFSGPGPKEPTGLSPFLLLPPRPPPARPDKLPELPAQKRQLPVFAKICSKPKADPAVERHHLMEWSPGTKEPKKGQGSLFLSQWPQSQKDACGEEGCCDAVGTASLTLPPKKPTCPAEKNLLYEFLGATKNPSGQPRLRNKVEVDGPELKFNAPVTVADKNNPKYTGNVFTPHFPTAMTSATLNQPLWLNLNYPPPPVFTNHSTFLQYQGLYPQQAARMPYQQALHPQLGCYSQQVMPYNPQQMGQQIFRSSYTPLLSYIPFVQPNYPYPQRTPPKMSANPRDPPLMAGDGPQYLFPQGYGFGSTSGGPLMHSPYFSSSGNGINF
B2: Leucine rich adaptor protein 1 (Homo sapiens), Q96LR2 (parent)
chain: MEGTVESQTPDLRDVEGKVGRKTPEGLLRGLRGECELGTSGALLLPGASSTGHDLGDKIMALKMELAYLRAIDVKILQQLVTLNEGIEAVRWLLEERGTLTSHCSSLTSSQYSLTGGSPGRSRRGSWDSLPDTSTTDRLDSVSIGSFLDTVAPSELDEQGPPGAPRSEMDWAKVIAGGERARTEVDVAATRLGSLRAVWKPPGERLQGGPPESPEDESAKLGFEAHWFWEQCQDDVTFL
partner: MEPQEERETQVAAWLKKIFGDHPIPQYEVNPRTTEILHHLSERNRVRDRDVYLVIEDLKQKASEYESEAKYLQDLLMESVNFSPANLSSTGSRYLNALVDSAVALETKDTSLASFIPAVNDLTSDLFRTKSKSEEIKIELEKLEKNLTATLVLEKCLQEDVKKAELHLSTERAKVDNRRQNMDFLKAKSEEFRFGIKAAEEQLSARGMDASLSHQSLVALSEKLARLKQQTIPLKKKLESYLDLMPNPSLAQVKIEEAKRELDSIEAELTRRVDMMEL
B3: Proteasome subunit beta type-1 (Homo sapiens), P20618 (parent)
chain: MLSSTAMYSAPGRDLGMEPHRAAGPLQLRFSPYVFNGGTILAIAGEDFAIVASDTRLSEGFSIHTRDSPKCYKLTDKTVIGCSGFHGDCLTLTKIIEARLKMYKHSNNKAMTTGAIAAMLSTILYSRRFFPYYVYNIIGGLDEEGKGAVYSFDPVGSYQRDSFKAGGSASAMLQPLLDNQVGFKNMQNVEHVPLSLDRAMRLVKDVFISAAERDVYTGDALRICIVTKEGIREETVSLRKD
partner: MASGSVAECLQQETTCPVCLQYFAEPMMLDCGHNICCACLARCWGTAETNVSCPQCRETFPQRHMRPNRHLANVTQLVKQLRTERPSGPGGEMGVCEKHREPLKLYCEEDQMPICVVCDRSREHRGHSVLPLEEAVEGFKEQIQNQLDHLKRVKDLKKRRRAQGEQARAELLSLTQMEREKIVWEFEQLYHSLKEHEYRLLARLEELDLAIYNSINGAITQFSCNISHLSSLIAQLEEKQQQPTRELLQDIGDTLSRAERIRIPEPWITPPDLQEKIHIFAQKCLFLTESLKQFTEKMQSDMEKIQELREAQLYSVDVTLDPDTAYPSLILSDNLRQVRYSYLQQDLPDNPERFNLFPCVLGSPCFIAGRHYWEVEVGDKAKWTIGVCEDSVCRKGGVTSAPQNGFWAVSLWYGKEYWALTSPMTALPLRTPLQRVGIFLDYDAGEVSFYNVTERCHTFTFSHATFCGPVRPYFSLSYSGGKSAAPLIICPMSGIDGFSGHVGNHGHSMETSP
B4: Cyclin-D1-binding protein 1 (Homo sapiens), O95273 (parent)
chain: MASATAPAAAVPTLASPLEQLRHLAEELRLLLPRVRVGEAQETTEEFNREMFWRRLNEAAVTVSREATTLTIVFSQLPLPSPQETQKFCEQVHAAIKAFIAVYYLLPKDQGITLRKLVRGATLDIVDGMAQLMEVLSVTPTQSPENNDLISYNSVWVACQQMPQIPRDNKAAALLMLTKNVDFVKDAHEEMEQAVEECDPYSGLLNDTEENNSDNHNHEDDVLGFPSNQDLYWSEDDQELIIPCLALVRASKACLKKIRMLVAENGKKDQVAQLDDIVDISDEISPSVDDLALSIYPPMCHLTVRINSAKLVSVLKKALEITKASHVTPQPEDSWIPLLINAIDHCMNRIKELTQSELEL
partner: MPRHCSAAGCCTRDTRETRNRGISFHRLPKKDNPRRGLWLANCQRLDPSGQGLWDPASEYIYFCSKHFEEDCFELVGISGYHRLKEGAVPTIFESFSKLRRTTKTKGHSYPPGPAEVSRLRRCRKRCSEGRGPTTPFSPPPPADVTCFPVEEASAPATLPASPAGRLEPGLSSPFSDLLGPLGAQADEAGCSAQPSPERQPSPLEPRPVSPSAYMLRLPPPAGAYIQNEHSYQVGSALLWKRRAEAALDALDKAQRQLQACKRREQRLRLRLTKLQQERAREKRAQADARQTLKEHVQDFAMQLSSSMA
B5: Four and a half LIM domains protein 2 (Homo sapiens), Q14192 (parent)
chain: MTERFDCHHCNESLFGKKYILREESPYCVVCFETLFANTCEECGKPIGCDCKDLSYKDRHWHEACFHCSQCRNSLVDKPFAAKEDQLLCTDCYSNEYSSKCQECKKTIMPGTRKMEYKGSSWHETCFICHRCQQPIGTKSFIPKDNQNFCVPCYEKQHAMQCVQCKKPITTGGVTYREQPWHKECFVCTACRKQLSGQRFTARDDFAYCLNCFCDLYAKKCAGCTNPISGLGGTKYISFEERQWHNDCFNCKKCSLSLVGRGFLTERDDILCPDCGKDI
partner: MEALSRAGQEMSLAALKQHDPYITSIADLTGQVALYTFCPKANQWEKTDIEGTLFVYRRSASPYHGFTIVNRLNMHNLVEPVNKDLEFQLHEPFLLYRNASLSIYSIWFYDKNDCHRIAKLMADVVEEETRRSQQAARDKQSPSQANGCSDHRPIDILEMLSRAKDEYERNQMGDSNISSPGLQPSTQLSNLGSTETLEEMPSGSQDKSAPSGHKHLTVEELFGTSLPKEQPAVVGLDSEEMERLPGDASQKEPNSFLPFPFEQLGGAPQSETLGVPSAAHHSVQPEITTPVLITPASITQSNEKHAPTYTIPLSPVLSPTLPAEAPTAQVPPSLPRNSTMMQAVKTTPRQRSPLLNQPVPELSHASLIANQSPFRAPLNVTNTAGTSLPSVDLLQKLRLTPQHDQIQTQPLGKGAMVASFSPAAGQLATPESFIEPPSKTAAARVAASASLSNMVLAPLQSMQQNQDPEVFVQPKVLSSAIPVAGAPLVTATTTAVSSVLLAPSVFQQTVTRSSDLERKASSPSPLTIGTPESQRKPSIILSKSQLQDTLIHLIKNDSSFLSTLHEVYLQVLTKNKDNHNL
B6: Protein FAM168A (Homo sapiens), Q92567 (parent)
chain: MNPVYSPVQPGAPYGNPKNMAYTGYPTAYPAAAPAYNPSLYPTNSPSYAPEFQFLHSAYATLLMKQAWPQNSSSCGTEGTFHLPVDTGTENRTYQASSAAFRYTAGTPYKVPPTQSNTAPPPYSPSPNPYQTAMYPIRSAYPQQNLYAQGAYYTQPVYAAQPHVIHHTTVVQPNSIPSAIYPAPVAAPRTNGVAMGMVAGTTMAMSAGTLLTTPQHTAIGAHPVSMPTYRAQGTPAYSYVPPHW
partner: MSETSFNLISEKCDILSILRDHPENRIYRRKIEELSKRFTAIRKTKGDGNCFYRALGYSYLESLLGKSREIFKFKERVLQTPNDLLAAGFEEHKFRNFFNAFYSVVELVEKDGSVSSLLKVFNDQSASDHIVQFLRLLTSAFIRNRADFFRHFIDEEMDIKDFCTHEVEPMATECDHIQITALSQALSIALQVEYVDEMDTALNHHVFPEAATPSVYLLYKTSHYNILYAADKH
B7: TNF receptor-associated factor 1 (Homo sapiens), Q13077 (parent)
chain: MASSSGSSPRPAPDENEFPFGCPPTVCQDPKEPRALCCAGCLSENPRNGEDQICPKCRGEDLQSISPGSRLRTQEKAHPEVAEAGIGCPFAGVGCSFKGSPQSVQEHEVTSQTSHLNLLLGFMKQWKARLGCGLESGPMALEQNLSDLQLQAAVEVAGDLEVDCYRAPCSESQEELALQHFMKEKLLAELEGKLRVFENIVAVLNKEVEASHLALATSIHQSQLDRERILSLEQRVVELQQTLAQKDQALGKLEQSLRLMEEASFDGTFLWKITNVTRRCHESACGRTVSLFSPAFYTAKYGYKLCLRLYLNGDGTGKRTHLSLFIVIMRGEYDALLPWPFRNKVTFMLLDQNNREHAIDAFRPDLSSASFQRPQSETNVASGCPLFFPLSKLQSPKHAYVKDDTMFLKCIVETST

Variants of: B1
Details: with ca094_human C1orf94, Q6P1W5

Row | Variant | effect of a mutation on the interaction
1 | M251V | with no effect
2 | A226E | with no effect
3 | L42P | with no effect

Variants of: B2
Details: with haus1_human HAUS1, Q96CS2

Row | Variant | effect of a mutation on the interaction
4 | Q207R | with no effect
5 | M60L | with no effect

Variants of: B3
Details: with tri27_human TRIM27, P14373

Row | Variant | effect of a mutation on the interaction
6 | P11A | with no effect

Variants of: B4
Details: with thap7_human THAP7, Q9BT49

Row | Variant | effect of a mutation on the interaction
7 | I277T | disrupting interaction strength

Variants of: B5
Details: with dcp1a_human DCP1A

Row | Variant | effect of a mutation on the interaction
8 | A37S | with no effect
9 | N95K | with no effect

Variants of: B6
Details: with otub2_human OTUB2, Q96DC9

Row | Variant | effect of a mutation on the interaction
10 | P122R | disrupting interaction strength

Variants of: B7
Details: with traf2_human TRAF2, Q12933
traf2_human TRAF2, Q12933, sequence (Q12933 whole entry): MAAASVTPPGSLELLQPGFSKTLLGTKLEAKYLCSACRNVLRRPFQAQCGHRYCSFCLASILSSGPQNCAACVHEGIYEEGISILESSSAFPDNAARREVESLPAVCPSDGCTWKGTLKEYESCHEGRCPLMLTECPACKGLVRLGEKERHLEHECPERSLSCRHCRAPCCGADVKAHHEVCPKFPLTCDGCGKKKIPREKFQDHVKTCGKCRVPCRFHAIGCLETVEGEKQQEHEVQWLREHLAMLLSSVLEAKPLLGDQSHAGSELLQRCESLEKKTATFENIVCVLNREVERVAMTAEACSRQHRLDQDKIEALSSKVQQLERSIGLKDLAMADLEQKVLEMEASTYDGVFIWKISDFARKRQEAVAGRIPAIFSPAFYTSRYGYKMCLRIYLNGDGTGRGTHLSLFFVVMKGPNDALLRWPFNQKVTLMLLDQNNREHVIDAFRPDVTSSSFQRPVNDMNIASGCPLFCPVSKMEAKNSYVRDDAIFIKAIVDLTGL

Row | Variant | effect of a mutation on the interaction
11 | K193R | with no effect
